Usually Kd stands for the constant that tells how readily two partners part at equilibrium. Low values mean a tighter complex, high ones a looser complex. The term EC50 (read off the curve) denotes the concentration at which the effect is half-maximal.

The target in assay [1] is T1, 78-kDa glucose-regulated protein (GRP78) (UniProt P11021 19-654).
T1 construct: 'peptides 86-90' in Biacore; also called BiP; HSP5a
The experiment in a line: flow cytometry, H460 cells, gMFI minus secondary only, one site-specific binding fit; no unit beside the number, x axis in nM. As to the method:
FIG. 9A-9B are graphs showing the cell surface binding of 6F8 to H460 cells. […] Binding conditions: 0.1×10^6 cells incubated with 3-fold dilutions of antibody started at 0.7 μM. Cells were washed 2× with FACS buffer. Stained with secondary antibody. Washed twice and analyzed in FACS buffer by flow cytometer FACS Canto II (BD). Geometric mean fluorescence intensity was fitted using the One site-specific binding in Graphpad Prism software.
For orientation: Flow cytometry measures light scatter and fluorescence of single cells or particles in a stream.

In the next assay the target is T2, C-terminal GRP78 peptide.
T2 construct: name from the legend, the sheet prints only 'GRP78 Hybridoma ELISA'
T2 sequence (P11021 other isoform, or with tags, fused parts or gaps): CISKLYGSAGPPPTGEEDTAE
The experiment in a line: ELISA on C-terminal GRP78 peptide. In general terms: In an ELISA, binding on a coated surface is turned into a signal by an enzyme label.

Assay [2] addresses T1, 78-kDa glucose-regulated protein (GRP78). The experiment in a line: flow cytometry, A549 cells, gMFI minus secondary only, one site-specific binding fit; no unit beside the number, x axis in nM. The method, then:
(§1) FIG. 7A-7B show graphs of flowcytometry data for the cell surface binding of GRP78 antibodies. […] Binding conditions: 0.1×10⁶ cells incubated with 3-fold dilutions of antibody started at 2.22 μM. Cells were washed 2× with FACS buffer. Stained with secondary antibody. Washed twice and analyzed in FACS buffer by flow cytometer FACS Canto II (BD). Geometric mean fluorescence intensity was fitted using the “One site-specific binding” in Graphpad Prism software.
(§2) A Flow cytometry assay for cell surface binding of 6F8 antibody to A549 cells was done (FIG. 7A-7B). Binding conditions: 0.1×10⁶ cells incubated with 3-fold dilutions of antibody started at 2.22 μM. Cells were washed 2× with FACS buffer. Stained with secondary antibody. Washed twice and analyzed in FACS buffer by flow cytometer FACS Canto II (BD). Geometric mean fluorescence intensity was fitted using the “One site-specific binding” in Graphpad Prism software. Graph showing the same data as in A fitted using the “Sigmoidal, 4PL, X is log(concentration)” in Graphpad Prism software (FIG. 7B).

For assay [3] the target is unchanged. The experiment in a line: flow cytometry, H460 cells, gMFI minus secondary only, 4PL fit. As to the method:
FIG. 9A-9B are graphs showing the cell surface binding of 6F8 to H460 cells. […] Binding conditions: 0.1×10^6 cells incubated with 3-fold dilutions of antibody started at 0.7 μM. Cells were washed 2× with FACS buffer. Stained with secondary antibody. Washed twice and analyzed in FACS buffer by flow cytometer FACS Canto II (BD). […]

The target in another assay is T3, peptide 88.
T3 construct: 12-mer from the C-terminus of GRP78
T3 peptide: VQPIISKLYGSA
As to the kind of experiment: Biacore T200, 6F8 immobilized on CM5 chip, peptide as analyte, blank-subtracted relative response. The method, then: (§3) FIG. 5A-5B show the epitope mapping of 6F8 antibody. FIG. 5A depicts a graph of the relative response binding. Epitope mapping was performed using Biacore T200. 6F8 was immobilized on the CM5 sensor chip and peptides 86-90 (overlapping peptides in the immunogen region of 6F8) were passed as analyte. Relative binding response (response on blank channel subtracted from the 6F8 immobilized channel) of each peptide to 6F8 was analyzed using the BIAevaluation software. Cut-off for nonbinding peptides is 0 RU. […] The figure was generated using Pymol software (SEQ ID NO: 71).
(§4) Seven peptides were synthesized from the c-terminus of GRP78. Each peptide was a 12-mer with 5 amino acid overlap. The sequences of the peptides are shown above. Each of the peptide was coated in duplicate on nitrocellulose membrane and incubated with 7A9 antibody. After washing, the blot was developed using chemiluminescence. The arrows indicate positive spot, FIG. 4. 7A9 epitope: SEQ ID NO: 70 ([…] . . . EDTAE). FIG. 5A-5B Epitope mapping of 6F8 antibody was performed using Biacore T200. 6F8 was immobilized on the CM5 sensor chip and peptides 86-90 (overlapping peptides in the immunogen region of 6F8) were passed as analyte. Relative binding response (response on blank channel subtracted from the 6F8 immobilized channel) of each peptide to 6F8 was analyzed using the BIAevaluation software. Cut-off for nonbinding peptides is 0 RU. Three-dimensional model of GRP78 protein indicating the epitope sequence on the protein in magenta color. The figure was generated using Pymol software.
In general terms: SPR reads the build-up and loss of mass on a sensor chip optically.

Assay [4] concerns the target T4, peptide 90.
T4 construct: 12-mer from the C-terminus of GRP78
T4 peptide: PPTGEEDTAEKD
Described as above. The method, then: as §3, §4

The target in assay [5] is T5, peptide 89.
T5 construct: 12-mer from the C-terminus of GRP78
T5 peptide: LYGSAGPPPTGE
The description is as above. As to the method:
as §3, §4

In assay [6] the target is T6, peptide 87.
T6 construct: 12-mer from the C-terminus of GRP78
T6 peptide: KKELEEIVQPII
The assay is described as above. The method, then: as §3, §4

Assay [7] concerns the target T7, peptide 86.
T7 construct: 12-mer from the C-terminus of GRP78
T7 peptide: IEDFKAKKKELE
The assay is described as above. As to the method: as §3, §4

For assay [8], the target named is T1, 78-kDa glucose-regulated protein (GRP78). The experiment in a line: flow cytometry, A549 cells, gMFI minus secondary only, 4PL fit. The method, then: as §1, §2
The target of assay [9] is T5, peptide 89. As to the kind of experiment: Biacore T200, 7A9 immobilized on CM5 chip, peptide as analyte, blank-subtracted relative response. The method, then: (§5) FIG. 6A depicts a graph of the relative response binding of 7A9. Epitope mapping was performed using Biacore T200. 7A9 was immobilized on the CM5 sensor chip and peptides 86-90 (overlapping peptides in the immunogen region of 7A9) were passed as analyte. Relative binding response (response on blank channel subtracted from the 7A9 immobilized channel) of each peptide to 7A9 was analyzed using the BIAevaluation software. Cut-off for nonbinding peptides is 0 RU. […] The figure was generated using Pymol software (SEQ ID NO: 70).
(§6) FIG. 6A-6B Epitope mapping of 7A9 antibody was performed using Biacore T200. 7A9 was immobilized on the CM5 sensor chip and peptides 86-90 (overlapping peptides in the immunogen region of 7A9) were passed as analyte. Relative binding response (response on blank channel subtracted from the 7A9 immobilized channel) of each peptide to 7A9 was analyzed using the BIAevaluation software. Cut-off for nonbinding peptides is 0 RU. Three-dimensional model of GRP78 protein indicating the epitope sequence on the protein in red color. The figure was generated using Pymol software.

Assay [10] deals with T6, peptide 87. Described as above. The method, then:
as §5, §6

Assay [11] deals with T7, peptide 86. Described as above. As to the method: as §5, §6
Assay [12] deals with T1, 78-kDa glucose-regulated protein (GRP78). The experiment in a line: flow cytometry, H460 cells, gMFI, one site-specific binding fit; no unit beside the number, x axis in nM; all points lie at gMFI about 1000-1400, so the fit rests on no point of the rising part. As to the method: FIG. 11A-11B show flow cytometry for cell surface binding of 7A9 antibody to H460 cells. FIG. 11A is the flow cytometry assay for cell surface binding of 7A9 antibody to H460 cells. Binding conditions: 0.1×10⁶ cells incubated with 3-fold dilutions of antibody started at 1.0 μM. Cells were washed 2× with FACS buffer. Stained with secondary antibody. Washed twice and analyzed in FACS buffer by flow cytometer FACS Canto II (BD). Geometric mean fluorescence intensity was fitted using the One site-specific binding in Graphpad Prism software.

The target is the same in assay [13]. The experiment in a line: flow cytometry, H460 cells, gMFI, 4PL fit; x axis of panel B is printed 'Log10 [6F8] nM' although title and legend say 7A9. As to the method: FIG. 11A-11B show flow cytometry for cell surface binding of 7A9 antibody to H460 cells. FIG. 11A is the flow cytometry assay for cell surface binding of 7A9 antibody to H460 cells. Binding conditions: 0.1×10⁶ cells incubated with 3-fold dilutions of antibody started at 1.0 μM. Cells were washed 2× with FACS buffer. Stained with secondary antibody. Washed twice and analyzed in FACS buffer by flow cytometer FACS Canto II (BD). […]

The target in assay [14] is T4, peptide 90. The experiment in a line: peptide dot blot on nitrocellulose, chemiluminescence. The method, then:
Seven peptides were synthesized from the c-terminus of GRP78. Each peptide was a 12-mer with 5 amino acid overlap. Each of the peptide was coated in duplicate on nitrocellulose membrane and incubated with 7A9 antibody. After washing, the blot was developed using chemiluminescence. The arrows indicate positive spot.
as §4

T1 sequence (P11021 19-654 limits assumed): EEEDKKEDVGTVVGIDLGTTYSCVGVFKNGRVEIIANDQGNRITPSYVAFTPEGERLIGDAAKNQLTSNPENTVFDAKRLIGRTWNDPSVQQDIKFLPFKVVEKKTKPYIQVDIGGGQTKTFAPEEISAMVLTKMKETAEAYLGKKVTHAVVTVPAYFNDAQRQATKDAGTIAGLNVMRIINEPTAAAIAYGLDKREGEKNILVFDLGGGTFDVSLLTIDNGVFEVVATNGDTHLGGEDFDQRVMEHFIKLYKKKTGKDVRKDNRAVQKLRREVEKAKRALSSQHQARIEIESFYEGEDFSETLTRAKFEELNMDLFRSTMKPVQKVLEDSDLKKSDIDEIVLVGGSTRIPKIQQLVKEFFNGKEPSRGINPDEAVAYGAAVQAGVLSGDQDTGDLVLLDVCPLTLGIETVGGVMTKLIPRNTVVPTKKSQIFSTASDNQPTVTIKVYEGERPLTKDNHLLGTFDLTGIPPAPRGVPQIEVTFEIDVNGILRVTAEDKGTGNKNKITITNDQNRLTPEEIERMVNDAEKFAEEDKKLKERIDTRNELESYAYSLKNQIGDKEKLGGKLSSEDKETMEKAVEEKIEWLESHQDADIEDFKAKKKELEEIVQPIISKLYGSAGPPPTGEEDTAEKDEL

B1: 6F8 anti-GRP78 mouse monoclonal antibody (antibody, V domains shown)
VH: EVQLVESGGGLVRPKGSLKLSCAASGFTLNTSAMNWVRQVPGKGLEWVGRIRSKNYNYATYYADSVKDRFTIFRDDSQNMLYLQMNNLKTEDTAMYYCVRPPGFAYWGQGTLVTVSA
VL: DIQMTQSPSSLSASLGERVSLTCRTSQEISGHLSWLQQKPDGTIKRLIYAASSLDSGVPKRFSGSRSGSDYSLTISSLESEDFADYYCLQYSSYPYTFGGGTKLEIK
In the case of B1, the Kd in assay [1] was found to be 35.8 nM; in assay [2] it was 16.4 nM. The entries for the “EC50 (read off the curve)” value (with C-terminal GRP78 peptide; in [3]; in assay [8]) were around 1000 nM, around 100 nM and around 50 nM, respectively. In addition, the binding result in the assay with peptide 88 is “no binding”; with peptide 90 [4], “binds”; with peptide 89 [5], “no binding”; with peptide 87 [6], “no binding”; with peptide 86 [7], “no binding”.

B2: 7A9 anti-GRP78 mouse monoclonal antibody (antibody, V domains shown)
VH: EVQLVETGGGLVQPKGSLKLSCAVSGITFNINAMNWVRQAPGKGLEWVARIRSKSNNYATYYADSVKDRFTISRDDSQSMLYLQMNNLKTEDTAMYYCVRDITRAGYFDVWGAGTTVTVSS
VL: QIVLTQSPAIMSASPGEKVTITCSASSSVIYMHWFQQKPGTSPKLWIYSTSNLASGVPARFSGSGSGTSYSLTISRMEAEDAATYYCQQRSSYPLTFGAGTKLELK
In the case of B2, the binding result with peptide 89 [9] was “no binding”; with peptide 87 [10], “no binding”; with peptide 86 [11], “no binding”; in the assay with peptide 90 [14], “binds”. In [12], the Kd worked out at 0.108 nM. Further, the “EC50 (read off the curve)” value in assay [13] was around 40 nM.

Source of the values: patent US20220259322A1 (WASHINGTON UNIVERSITY, published 2022).
